Measurements as given in paper PMC3167946.
pEC50: −log10 of the molar value.

Biological target: Envelope glycoprotein gp120Bal (HIV-1 isolate Bal)
Experiment: ELISA

Row | Substance | pEC50
1 | macaque germline HV control scFv (macaque germline b12 HV recombined with human mature b12 D(J)-segments and VL) | 5.60
2 | human germline HV control scFv (human germline b12 HV recombined with human mature b12 D(J)-segments and VL) | 7.62
